Here are results for 1 substance from US20240109954A1.

The assay concerns the target EBOV GP displayed on vesicular stomatitis virus (VSV) pseudovirions (Ebola virus) (UniProt Q05320). In words: cell-based or functional assay.

Chain of EBOV GP displayed on vesicular stomatitis virus (VSV) pseudovirions (Ebola virus) (Q05320 33-676 limits assumed): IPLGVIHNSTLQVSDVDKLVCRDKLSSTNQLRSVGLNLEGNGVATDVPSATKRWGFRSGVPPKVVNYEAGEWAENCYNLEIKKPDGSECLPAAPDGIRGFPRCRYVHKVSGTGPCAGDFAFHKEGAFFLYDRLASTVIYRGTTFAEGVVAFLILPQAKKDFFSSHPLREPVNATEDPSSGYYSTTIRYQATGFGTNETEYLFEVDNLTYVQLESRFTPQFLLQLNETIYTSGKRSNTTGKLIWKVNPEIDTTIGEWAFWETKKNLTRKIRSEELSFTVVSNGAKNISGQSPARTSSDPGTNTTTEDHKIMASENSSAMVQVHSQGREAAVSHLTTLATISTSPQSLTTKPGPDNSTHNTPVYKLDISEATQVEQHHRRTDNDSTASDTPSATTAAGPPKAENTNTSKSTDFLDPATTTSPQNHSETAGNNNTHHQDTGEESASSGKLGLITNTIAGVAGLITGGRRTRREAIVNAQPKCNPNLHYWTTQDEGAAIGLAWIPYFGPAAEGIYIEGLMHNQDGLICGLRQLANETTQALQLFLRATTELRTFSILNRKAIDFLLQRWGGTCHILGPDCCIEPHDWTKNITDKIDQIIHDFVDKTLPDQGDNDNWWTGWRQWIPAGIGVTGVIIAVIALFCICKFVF

Substance KZ52 (antibody) came in with an IC50, neutralization of VSV pseudotyped to display EBOV GP of 0.08 µg/mL.
